Results from US20170157165A1.

Target: Human FGF2 (manufactured by Peprotech Inc.) (human) (UniProt P09038)
Test: cell-based or functional assay

Sequence of Human FGF2 (manufactured by Peprotech Inc.) (human) (P09038 135-288 limits assumed): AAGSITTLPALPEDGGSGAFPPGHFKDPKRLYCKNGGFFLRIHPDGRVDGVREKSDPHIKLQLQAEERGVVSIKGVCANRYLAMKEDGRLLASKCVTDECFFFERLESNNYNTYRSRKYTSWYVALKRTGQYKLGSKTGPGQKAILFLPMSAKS

inhibitory rate (%) of FGF2-dependent growth of HUVEC cells; 3H3 (1 nM) + FGF2 (500 pM): 8.5%
inhibitory rate (%) of FGF2-dependent growth of HUVEC cells; 3H3 (5 nM) + FGF2 (500 pM): 30%
inhibitory rate (%) of FGF2-dependent growth of HUVEC cells; 3H3 (25 nM) + FGF2 (500 pM): 100%
Substance: anti-FGF2 antibody Anti-FGF, basic (Ab-3) Mouse mAb (3H3) (manufactured by Calbiochem)
